What was measured:
[1] = molecular target: human Siglec-5 expressed on human primary cells (human) (UniProt O15389); assay: flow cytometry, human primary monocytes, isotype control
[2] = molecular target: human Siglec-5 expressed on human primary cells (human) (UniProt O15389); assay: flow cytometry, human primary macrophages, isotype control
[3] = molecular target: human Siglec-5 expressed on human primary cells (human) (UniProt O15389); assay: flow cytometry, human primary neutrophils, isotype control
[4] = molecular target: human Siglec-5 expressed on human primary cells (human) (UniProt O15389); assay: flow cytometry, human primary dendritic cells, isotype control
[5] = molecular target: T1, Human Siglec 5, Fc chimera (R&D Systems) (human, UniProt O15389 17-434, limits assumed); assay: RBC adhesion to plate-bound Siglec-5-Fc, 0.3 ug/ml isotype control, percent of binding without antibody
T1 construct: Bought or recombinant Fc fusion; also called recombinant Siglec-5-Fc; not shown: Fc part
T1 sequence: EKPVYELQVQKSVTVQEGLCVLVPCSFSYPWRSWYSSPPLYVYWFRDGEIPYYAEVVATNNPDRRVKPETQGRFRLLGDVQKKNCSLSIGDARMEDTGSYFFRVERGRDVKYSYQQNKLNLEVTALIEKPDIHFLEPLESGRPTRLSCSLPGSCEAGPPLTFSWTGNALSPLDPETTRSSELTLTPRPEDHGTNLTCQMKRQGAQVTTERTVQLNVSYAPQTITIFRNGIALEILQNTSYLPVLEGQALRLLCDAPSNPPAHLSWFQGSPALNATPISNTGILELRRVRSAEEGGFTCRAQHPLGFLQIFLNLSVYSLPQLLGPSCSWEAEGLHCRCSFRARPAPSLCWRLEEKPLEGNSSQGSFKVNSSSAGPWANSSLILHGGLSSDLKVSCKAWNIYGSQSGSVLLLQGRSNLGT

[6] = molecular target: T1, Human Siglec 5, Fc chimera (R&D Systems); assay: RBC adhesion to plate-bound Siglec-5-Fc, 1.0 ug/ml isotype control, percent of binding without antibody
[7] = molecular target: human Siglec-5 expressed on human primary cells (human) (UniProt O15389); assay: flow cytometry, human primary monocytes, 10 ug/ml mAb
[8] = molecular target: human Siglec-5 expressed on human primary cells (human) (UniProt O15389); assay: flow cytometry, human primary macrophages, 10 ug/ml mAb
[9] = molecular target: human Siglec-5 expressed on human primary cells (human) (UniProt O15389); assay: flow cytometry, human primary neutrophils, 10 ug/ml mAb
[10] = molecular target: human Siglec-5 expressed on human primary cells (human) (UniProt O15389); assay: flow cytometry, human primary dendritic cells, 10 ug/ml mAb
[11] = molecular target: T1, Human Siglec 5, Fc chimera (R&D Systems); assay: RBC adhesion to plate-bound Siglec-5-Fc, 0.3 ug/ml mAb, percent of binding without antibody
[12] = molecular target: human Siglec-5 expressed on human primary cells (human) (UniProt O15389); assay: flow cytometry, human primary monocytes, secondary antibody only (no primary antibody), background control
[13] = molecular target: human Siglec-5 expressed on human primary cells (human) (UniProt O15389); assay: flow cytometry, human primary macrophages, secondary antibody only (no primary antibody), background control
[14] = molecular target: human Siglec-5 expressed on human primary cells (human) (UniProt O15389); assay: flow cytometry, human primary neutrophils, secondary antibody only (no primary antibody), background control
[15] = molecular target: human Siglec-5 expressed on human primary cells (human) (UniProt O15389); assay: flow cytometry, human primary dendritic cells, secondary antibody only (no primary antibody), background control

mouse IgG1 isotype control antibody
% Positive [1]: 10.7%
MFI [1]: 126
% Positive [2]: 21.9%
MFI [2]: 305
% Positive [3]: 1.3%
MFI [3]: 53.7
% Positive [4]: 6.7%
MFI [4]: 98
Percent RBC Binding to Siglec-5 [5]: 100%
Percent RBC Binding to Siglec-5 [6]: 102%

commercially available anti-Siglec-5 antibody, clone 194128 (R&D Systems)
% Positive [7]: 98.8%
MFI [7]: 463
% Positive [8]: 96.9%
MFI [8]: 806
% Positive [9]: 99.2%
MFI [9]: 383
% Positive [10]: 94.8%
MFI [10]: 641
Percent RBC Binding to Siglec-5 [11]: 41.5%

PE-conjugated secondary antibody
% Positive [12]: 8.2%
MFI [12]: 104
% Positive [13]: 5.4%
MFI [13]: 221
% Positive [14]: 3.42%
MFI [14]: 62.1
% Positive [15]: 2.1%
MFI [15]: 87
